Source: patent US20150064134A1

Key:
Experiment in all cases: cell-based or functional assay
BTK(R28H)(h) (human) = BTK(R28H)(h) (human) (UniProt Q06187)
CHK2(I157T)(h) (human) = CHK2(I157T)(h) (human) (UniProt O96017)
CaMKIIβ(h) (human) = CaMKIIβ(h) (human) (UniProt Q13554)
DCAMKL2(h) (human) = molecular target: T1, DCAMKL2(h) (human) (UniProt Q8N568)
T1 sequence (looked up): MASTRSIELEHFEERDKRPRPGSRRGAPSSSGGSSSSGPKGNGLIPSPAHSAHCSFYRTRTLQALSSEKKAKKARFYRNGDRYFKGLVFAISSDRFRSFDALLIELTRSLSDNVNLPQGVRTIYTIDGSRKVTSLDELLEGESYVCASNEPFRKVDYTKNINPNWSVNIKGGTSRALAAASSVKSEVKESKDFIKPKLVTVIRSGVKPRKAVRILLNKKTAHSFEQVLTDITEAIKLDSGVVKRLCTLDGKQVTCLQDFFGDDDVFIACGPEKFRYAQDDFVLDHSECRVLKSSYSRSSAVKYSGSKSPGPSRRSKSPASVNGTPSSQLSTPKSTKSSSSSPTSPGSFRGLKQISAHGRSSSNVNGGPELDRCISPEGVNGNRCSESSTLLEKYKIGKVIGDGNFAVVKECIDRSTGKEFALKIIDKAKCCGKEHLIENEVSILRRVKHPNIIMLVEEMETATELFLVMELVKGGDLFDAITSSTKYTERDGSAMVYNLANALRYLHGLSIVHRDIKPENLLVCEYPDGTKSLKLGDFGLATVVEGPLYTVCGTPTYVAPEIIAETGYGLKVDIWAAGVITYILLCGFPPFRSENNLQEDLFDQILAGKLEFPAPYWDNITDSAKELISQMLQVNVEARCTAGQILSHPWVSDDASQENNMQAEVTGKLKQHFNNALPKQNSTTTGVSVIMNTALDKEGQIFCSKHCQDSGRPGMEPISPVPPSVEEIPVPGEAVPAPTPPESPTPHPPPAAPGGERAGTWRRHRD

EphA1(h) (human) = molecular target: T2, EphA1(h) (human) (UniProt P21709)
T2 sequence (looked up): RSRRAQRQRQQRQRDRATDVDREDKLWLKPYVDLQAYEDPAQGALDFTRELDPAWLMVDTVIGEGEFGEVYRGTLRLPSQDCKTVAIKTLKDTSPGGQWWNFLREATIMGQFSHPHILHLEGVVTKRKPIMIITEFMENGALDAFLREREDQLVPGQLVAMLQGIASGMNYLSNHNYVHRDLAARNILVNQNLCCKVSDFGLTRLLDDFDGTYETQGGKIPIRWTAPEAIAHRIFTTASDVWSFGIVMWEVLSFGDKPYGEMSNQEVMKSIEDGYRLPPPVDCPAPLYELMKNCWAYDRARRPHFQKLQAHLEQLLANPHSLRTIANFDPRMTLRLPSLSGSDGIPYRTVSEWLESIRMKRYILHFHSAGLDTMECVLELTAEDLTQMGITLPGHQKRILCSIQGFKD

JNK2α2(h) (human) = JNK2α2(h) (human) (UniProt P45984)
MAPKAP-K3(h) (human) = MAPKAP-K3(h) (human) (UniProt Q16644)
Met(D1246H)(h) (human) = Met(D1246H)(h) (human) (UniProt P08581)
NEK3(h) (human) = molecular target: T3, NEK3(h) (human) (UniProt P51956)
T3 sequence (looked up): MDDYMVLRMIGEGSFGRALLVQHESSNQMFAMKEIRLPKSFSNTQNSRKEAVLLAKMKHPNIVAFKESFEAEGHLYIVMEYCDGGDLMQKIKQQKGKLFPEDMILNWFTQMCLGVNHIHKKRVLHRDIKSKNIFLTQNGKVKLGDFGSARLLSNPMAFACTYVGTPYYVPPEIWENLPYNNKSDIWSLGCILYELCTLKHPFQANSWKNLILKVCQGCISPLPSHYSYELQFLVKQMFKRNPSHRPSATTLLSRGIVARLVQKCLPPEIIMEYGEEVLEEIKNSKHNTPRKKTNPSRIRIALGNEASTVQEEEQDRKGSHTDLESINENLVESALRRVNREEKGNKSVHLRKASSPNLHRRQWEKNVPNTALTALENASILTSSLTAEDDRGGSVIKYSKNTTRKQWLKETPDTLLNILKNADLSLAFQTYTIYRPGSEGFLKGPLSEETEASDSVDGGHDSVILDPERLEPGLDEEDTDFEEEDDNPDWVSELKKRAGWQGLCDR

NEK7(h) (human) = NEK7(h) (human) (UniProt Q8TDX7)
PKCγ(h) (human) = PKCγ(h) (human) (UniProt P05129)
PKCδ(h) (human) = PKCδ(h) (human) (UniProt Q05655)
PRAK(h) (human) = PRAK(h) (human) (UniProt Q8IW41)
Sequence of PRAK(h) (human) (Q8IW41 whole entry): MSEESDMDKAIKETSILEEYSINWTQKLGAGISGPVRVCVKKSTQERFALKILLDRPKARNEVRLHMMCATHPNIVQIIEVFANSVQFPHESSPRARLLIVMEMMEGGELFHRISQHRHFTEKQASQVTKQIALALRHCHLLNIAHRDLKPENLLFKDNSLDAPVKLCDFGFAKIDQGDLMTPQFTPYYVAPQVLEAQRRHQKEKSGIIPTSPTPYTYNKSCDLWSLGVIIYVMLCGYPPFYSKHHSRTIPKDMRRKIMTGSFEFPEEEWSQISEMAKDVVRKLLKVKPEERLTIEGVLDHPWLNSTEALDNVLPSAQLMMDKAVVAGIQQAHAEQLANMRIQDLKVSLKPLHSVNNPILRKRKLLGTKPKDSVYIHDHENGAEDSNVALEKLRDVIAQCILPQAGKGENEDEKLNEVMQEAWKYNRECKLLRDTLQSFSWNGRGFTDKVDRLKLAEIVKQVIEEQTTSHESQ

ROCK-I(h) (human) = ROCK-I(h) (human) (UniProt Q13464)
Ret(h) (human) = molecular target: T4, Ret(h) (human) (UniProt P07949)
T4 sequence (looked up): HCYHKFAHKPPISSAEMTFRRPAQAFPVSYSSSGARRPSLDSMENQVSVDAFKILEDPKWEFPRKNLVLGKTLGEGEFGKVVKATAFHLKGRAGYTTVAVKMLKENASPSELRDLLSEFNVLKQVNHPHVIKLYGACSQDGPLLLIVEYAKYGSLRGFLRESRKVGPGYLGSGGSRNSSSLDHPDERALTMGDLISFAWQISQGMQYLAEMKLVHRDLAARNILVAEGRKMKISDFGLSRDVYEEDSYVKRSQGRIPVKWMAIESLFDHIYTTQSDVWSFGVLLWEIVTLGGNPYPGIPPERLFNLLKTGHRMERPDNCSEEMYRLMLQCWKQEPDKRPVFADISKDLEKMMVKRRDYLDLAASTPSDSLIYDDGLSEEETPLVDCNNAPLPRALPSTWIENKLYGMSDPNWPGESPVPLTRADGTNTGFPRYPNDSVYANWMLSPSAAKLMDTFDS

Src(T341M)(h) (human) = Src(T341M)(h) (human) (UniProt P12931)
Tie2(Y897S)(h) (human) = Tie2(Y897S)(h) (human) (UniProt Q02763)
Sequence of Tie2(Y897S)(h) (human) (Q02763 771-1124 Y897S limits assumed): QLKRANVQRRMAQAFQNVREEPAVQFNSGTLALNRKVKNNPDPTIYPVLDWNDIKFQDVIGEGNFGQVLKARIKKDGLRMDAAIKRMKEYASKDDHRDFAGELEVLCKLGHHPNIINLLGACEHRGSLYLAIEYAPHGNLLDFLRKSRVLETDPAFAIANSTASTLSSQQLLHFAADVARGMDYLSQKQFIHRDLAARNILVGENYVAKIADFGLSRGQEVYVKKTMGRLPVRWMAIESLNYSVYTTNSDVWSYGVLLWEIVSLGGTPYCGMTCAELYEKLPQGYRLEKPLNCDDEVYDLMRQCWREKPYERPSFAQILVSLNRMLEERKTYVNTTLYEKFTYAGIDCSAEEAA

Sequence of CaMKIIβ(h) (human) (Q13554 whole entry): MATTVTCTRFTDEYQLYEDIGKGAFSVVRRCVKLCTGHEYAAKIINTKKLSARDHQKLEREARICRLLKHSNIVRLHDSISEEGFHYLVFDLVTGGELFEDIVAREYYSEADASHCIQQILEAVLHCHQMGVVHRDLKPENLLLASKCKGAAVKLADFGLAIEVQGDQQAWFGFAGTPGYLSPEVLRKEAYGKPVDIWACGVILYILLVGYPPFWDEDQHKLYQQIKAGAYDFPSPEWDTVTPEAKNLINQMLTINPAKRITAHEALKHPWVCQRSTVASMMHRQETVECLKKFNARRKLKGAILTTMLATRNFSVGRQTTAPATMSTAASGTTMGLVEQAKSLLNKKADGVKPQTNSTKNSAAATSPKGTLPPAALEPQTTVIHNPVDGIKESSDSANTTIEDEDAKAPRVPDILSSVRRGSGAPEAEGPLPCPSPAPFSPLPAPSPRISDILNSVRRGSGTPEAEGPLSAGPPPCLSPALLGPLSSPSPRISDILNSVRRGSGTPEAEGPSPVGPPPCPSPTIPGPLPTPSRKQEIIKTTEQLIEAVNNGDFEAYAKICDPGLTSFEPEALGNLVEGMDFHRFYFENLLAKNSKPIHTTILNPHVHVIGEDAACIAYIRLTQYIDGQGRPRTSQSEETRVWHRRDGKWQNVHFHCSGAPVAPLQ
Sequence of CHK2(I157T)(h) (human) (O96017 5-543 I157T limits assumed): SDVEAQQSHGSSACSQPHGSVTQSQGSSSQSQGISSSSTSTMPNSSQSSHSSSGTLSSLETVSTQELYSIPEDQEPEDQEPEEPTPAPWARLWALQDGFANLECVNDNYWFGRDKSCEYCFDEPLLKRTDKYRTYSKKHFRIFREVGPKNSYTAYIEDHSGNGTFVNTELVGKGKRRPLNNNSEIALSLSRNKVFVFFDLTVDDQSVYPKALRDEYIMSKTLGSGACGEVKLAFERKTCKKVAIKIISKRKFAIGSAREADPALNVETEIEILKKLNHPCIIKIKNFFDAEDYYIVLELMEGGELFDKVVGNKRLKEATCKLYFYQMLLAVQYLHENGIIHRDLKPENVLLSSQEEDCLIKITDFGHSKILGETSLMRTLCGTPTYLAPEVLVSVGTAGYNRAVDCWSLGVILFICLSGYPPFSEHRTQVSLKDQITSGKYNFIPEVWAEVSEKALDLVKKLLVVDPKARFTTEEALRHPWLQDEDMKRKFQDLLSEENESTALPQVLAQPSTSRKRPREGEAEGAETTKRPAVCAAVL

% activity at 100 µM (BTK(R28H)(h) (human)) [%]	% activity at 100 µM (CHK2(I157T)(h) (human)) [%]	% activity at 100 µM (CaMKIIβ(h) (human)) [%]	% activity at 100 µM (DCAMKL2(h) (human)) [%]	% activity at 100 µM (EphA1(h) (human)) [%]	% activity at 100 µM (JNK2α2(h) (human)) [%]	% activity at 100 µM (MAPKAP-K3(h) (human)) [%]	% activity at 100 µM (Met(D1246H)(h) (human)) [%]	% activity at 100 µM (NEK3(h) (human)) [%]	% activity at 100 µM (NEK7(h) (human)) [%]	% activity at 100 µM (PKCγ(h) (human)) [%]	% activity at 100 µM (PKCδ(h) (human)) [%]	% activity at 100 µM (PRAK(h) (human)) [%]	% activity at 100 µM (ROCK-I(h) (human)) [%]	% activity at 100 µM (Ret(h) (human)) [%]	% activity at 100 µM (Src(T341M)(h) (human)) [%]	% activity at 100 µM (Tie2(Y897S)(h) (human)) [%]	Substance
24	41	11	70	61	96	7	68	85	87	79	90	118	73	145	76	87	MMI-0400 (peptide)
10	3	3	56	40	81	9	150	20	89	6	61	95	17	174	59	80	MMI-0500 (peptide)
74	43	2	81	73	98	3	125	92	84	89	101	128	79	140	70	83	MMI-0300 (peptide)
